Data from publication PMC3547700.

Molecular target: V5-UL56 (HCMV strain AD169), plasmid-expressed (human cytomegalovirus strain AD169)

FLAG-UL51 (HCMV strain AD169), plasmid-expressed (natural protein)
percentage of transfected HEK-293 T cells with nuclear staining of UL56 by confocal microscopy, in the presence of UL51 (UL56 alone exclusively cytoplasmic) (% of cells with nuclear staining): 62

MYC-UL89 (HCMV strain AD169), plasmid-expressed (natural protein)
percentage of transfected HEK-293 T cells with nuclear staining of UL56 by confocal microscopy, in the presence of UL89 (UL56 alone exclusively cytoplasmic) (% of cells with nuclear staining): 37 | percentage of transfected HEK-293 T cells with nuclear staining of UL89 by confocal microscopy, in the presence of UL56 (UL89 alone exclusively cytoplasmic) (% of cells with nuclear staining): 26
